The target in one assay is T1, CD20 (Homo sapiens, UniProt P11836).
T1 construct: endogenous in cells; host or cells: patients' own cells (clinical treatment, reported from the literature)
T1 sequence (P11836 1-297): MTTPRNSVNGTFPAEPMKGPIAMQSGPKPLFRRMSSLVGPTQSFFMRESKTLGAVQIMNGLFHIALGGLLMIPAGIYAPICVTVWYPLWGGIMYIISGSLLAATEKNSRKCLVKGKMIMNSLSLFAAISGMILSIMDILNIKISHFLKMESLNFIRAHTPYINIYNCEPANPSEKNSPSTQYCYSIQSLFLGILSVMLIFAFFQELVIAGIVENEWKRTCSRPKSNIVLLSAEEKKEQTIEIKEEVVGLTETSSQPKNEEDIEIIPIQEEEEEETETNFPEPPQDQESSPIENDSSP
Conditions: cited from earlier work.

Assay [1] concerns the target T2, human F158 FcγRIIIa (Homo sapiens, UniProt P08637). Put plainly: Binding of human WT IgG1 to human F158 FcγRIIIa (Biacore, calorimetry). Conditions: present study; binding lower than the 5 uM cutoff applied; read-out: affinity for human F158 FcγRIIIa. As to the method: (§1) This is consistent with the literature which indicate that binding is approximately 200-500 nM, as determined by Biacore (210 nM as shown in Okazaki et al, 2004, J Mol Bio 336:1239-49; 250 nM as shown in Lazar et al, Proc Natl Acad Sci USA 103(11):4005-4010) and calorimetry (530 nM, Okazaki et al, 2004, J Mol Bio 336:1239-49).

For assay [2], the target named is T3, human V158 FcγRIIIa (Homo sapiens, UniProt P08637, F176V). Conditions: read-out: affinity for human V158 FcγRIIIa, cited from earlier work.
T3 sequence (P08637 17-208 F176V limits assumed): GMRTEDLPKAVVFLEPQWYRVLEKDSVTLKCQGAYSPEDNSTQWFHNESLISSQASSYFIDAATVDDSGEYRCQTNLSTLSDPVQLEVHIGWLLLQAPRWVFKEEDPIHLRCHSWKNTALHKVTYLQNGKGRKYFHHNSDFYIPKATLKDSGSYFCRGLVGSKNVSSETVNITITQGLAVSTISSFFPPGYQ
Assay [3] has as its target T3, human V158 FcγRIIIa. The assay is described as follows: Binding of human WT IgG1 to human V158 FcγRIIIa (Biacore, calorimetry). Conditions: present study; read-out: affinity for human V158 FcγRIIIa. As to the method:
as §1

Assay [4] has as its target T2, human F158 FcγRIIIa. Conditions: read-out: affinity for human F158 FcγRIIIa, cited from earlier work.
Where [5] appears, read: calorimetry, Okazaki et al 2004.

Where “and” joins values, the source holds several entries; their conditions need not be identical. Equal entries are not always repeated. Where two headings read alike, the source gives them in different places.

T2 sequence (P08637 17-208 limits assumed): as the sequence (P08637 17-208 F176V limits assumed) above, with V160F counted along it

In the case of “Rituxan: anti-CD20 antibody Rituxan® (rituximab)”, the clinical efficacy result in the assay with CD20 (patients homozygous or heterozygous for FcγRIIIA 158F, Carton 2002, Weng 2003) is reported as “minimally effective”. Further, in the assay with CD20 (patients with FcγRIIIA 158 V/V homozygous genotype, Dall'Ozzo et al. 2004), the clinical response result is “better clinical response”.

For “human WT IgG1: Human wild type IgG1 immunoglobulin, reference for Fc receptor binding”, the Kd is > 5000 nM with human F158 FcγRIIIa [1]; 210 nM and 250 nM in the assay with human V158 FcγRIIIa [2] (Biacore, Okazaki et al 2004, Lazar et al); 530 nM in the assay with human V158 FcγRIIIa [2] (setting [5]); 200 to 500 nM with human V158 FcγRIIIa [2] (literature overall); 750 nM with human V158 FcγRIIIa [2] (one study, Ferrara et al 2006); ~240 nM in the assay with human V158 FcγRIIIa [3]. Further, the Kd was 5000 nM with human F158 FcγRIIIa [4] (Biacore, Ferrara et al 2006); 2700 nM with human F158 FcγRIIIa [4] (setting [5]); 3000 to 5000 nM with human F158 FcγRIIIa [4] (literature overall).
